Test results published in US20250042969A1, “ANTIGEN DISCOVERY FOR T CELL RECEPTORS ISOLATED FROM PATIENT TUMORS RECOGNIZING WILD-TYPE ANTIGENS AND POTENT PEPTIDE MIMOTOPES” (The Board of Trustees of the Leland Stanford Junior …, priority 2017, published 2025).

Key:
[1] = biological target: …-HLA-A*02:01 single-chain trimer displayed on yeast (human); assay: flow cytometry of yeast displaying [..]-HLA-A*02:01, 400 nM DMF5 TCR tetramerized on SA-647 against anti-HA; the panel with SA-647 alone gives 10.80 in the same quadrant
[2] = biological target: …-HLA-A*02:01 single-chain trimer displayed on yeast (human); assay: flow cytometry histogram of yeast displaying … with HLA-A*02:01, '+' (MA2.1 then secondary antibody); the row '-' gives 9.655 in the same gate
[3] = biological target: …-HLA-A*02:01 single-chain trimer displayed on yeast (human); assay: flow cytometry histogram of yeast displaying … with HLA-A*02:01, '+' (MA2.1 then secondary antibody); the row '-' gives 6.825 in the same gate
[4] = biological target: …-HLA-A*02:01 single-chain trimer displayed on yeast (human); assay: flow cytometry histogram of yeast displaying … with HLA-A*02:01, '+' (MA2.1 then secondary antibody); the row '-' gives 6.542 in the same gate
[5] = biological target: …-HLA-A*02:01 single-chain trimer displayed on yeast (human); assay: flow cytometry histogram of yeast displaying … with HLA-A*02:01, '+' (MA2.1 then secondary antibody); the row '-' gives 5.574 in the same gate
[6] = biological target: …-HLA-A*02:01 single-chain trimer displayed on yeast (human); assay: flow cytometry histogram of yeast displaying … with HLA-A*02:01, '+' (MA2.1 then secondary antibody); the row '-' gives 6.578 in the same gate
[7] = biological target: …-HLA-A*02:01 single-chain trimer displayed on yeast (human); assay: flow cytometry histogram of yeast displaying … with HLA-A*02:01, '+' (MA2.1 then secondary antibody); the row '-' gives 7.270 in the same gate

Row | Substance | percent of yeast SA-647+ HA-488+ (upper right quadrant) [1] | percent of yeast in the MA2.1-positive gate [2] | percent of yeast in the MA2.1-positive gate [3] | percent of yeast in the MA2.1-positive gate [4] | percent of yeast in the MA2.1-positive gate [5] | percent of yeast in the MA2.1-positive gate [6] | percent of yeast in the MA2.1-positive gate [7]
1 | DMF5 TCR, soluble, multimerized on streptavidin | 55.8 | – | – | – | – | – | –
2 | MA2.1 antibody | – | 73.7 | 74.2 | 55.5 | 69 | 74.2 | 68.6
